The target in the assay is T1, Amylin 3(a) receptor (human calcitonin receptor (CTa) with RAMP-3) (human, UniProt P30988 25-474; O60896 24-148, limits assumed).
T1 sequence (looked up) 1: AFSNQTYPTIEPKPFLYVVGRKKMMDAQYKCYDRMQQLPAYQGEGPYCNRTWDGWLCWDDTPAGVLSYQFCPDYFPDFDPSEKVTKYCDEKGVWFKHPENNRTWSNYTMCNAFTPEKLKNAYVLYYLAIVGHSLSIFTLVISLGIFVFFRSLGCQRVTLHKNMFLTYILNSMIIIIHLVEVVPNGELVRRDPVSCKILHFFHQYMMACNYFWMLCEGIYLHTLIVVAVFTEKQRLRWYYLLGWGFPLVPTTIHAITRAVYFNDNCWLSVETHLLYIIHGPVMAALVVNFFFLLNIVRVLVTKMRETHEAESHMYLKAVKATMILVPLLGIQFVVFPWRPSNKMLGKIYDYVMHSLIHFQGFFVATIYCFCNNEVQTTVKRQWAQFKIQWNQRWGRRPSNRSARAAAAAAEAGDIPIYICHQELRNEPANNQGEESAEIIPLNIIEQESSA
T1 sequence (looked up) 2: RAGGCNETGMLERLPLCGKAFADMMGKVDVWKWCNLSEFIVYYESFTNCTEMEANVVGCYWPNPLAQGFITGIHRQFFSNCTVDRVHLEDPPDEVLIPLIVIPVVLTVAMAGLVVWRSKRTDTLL
Briefly: cell-based or functional assay.

Results on eight molecules are retold here after patent US20110105394A1 (Novo Nordisk, published 2011).

*1 amine or outer side, *2 acyl side, *3 side chain or, on linkers, in order; H or OH if unused. Bridges are numbered along the chain shown (N, C = ends). Where no end group is shown, it is not given here. The star is where a group is joined. X1 = (S)‑4‑Carboxy‑4‑(17-carboxyheptadecanoylamino)butyryl, O=C(O)CCCCCCCCCCCCCCCCC(=O)N[C@@H](CCC(=O)*)C(=O)O; C20 diacid = O=C(O)CCCCCCCCCCCCCCCCCCC(=O)*; C18 diacid = O=C(O)CCCCCCCCCCCCCCCCC(=O)*; γGlu = O=C(O)[C@H](CCC(=O)[*:2])N[*:1]; AEEA = NCCOCCOCC(=O)O

B1: N-alpha-[2-(2-{2-[4-(S)-Carboxy-4-(19-carboxynonadecanoylamino)butyrylamino]ethoxy}ethoxy)acetyl]-His-His-[Arg1,Arg17]-pramlintide (peptide)
peptide: {C20 diacid-γGlu-AEEA}-HHRCNTATCATQRLANFLRHSSNNFGPILPPTNVGSNTY-NH2
modifications: disulfide 4-9
SMILES: CC[C@H](C)[C@H](NC(=O)[C@@H]1CCCN1C(=O)CNC(=O)[C@H](Cc1ccccc1)NC(=O)[C@H](CC(N)=O)NC(=O)[C@H](CC(N)=O)NC(=O)[C@H](CO)NC(=O)[C@H](CO)NC(=O)[C@H](Cc1c[nH]cn1)NC(=O)[C@H](CCCNC(=N)N)NC(=O)[C@H](CC(C)C)NC(=O)[C@H](Cc1ccccc1)NC(=O)[C@H](CC(N)=O)NC(=O)[C@H](C)NC(=O)[C@H](CC(C)C)NC(=O)[C@H](CCCNC(=N)N)NC(=O)[C@H](CCC(N)=O)NC(=O)[C@@H](NC(=O)[C@H](C)NC(=O)[C@@H]1CSSC[C@H](NC(=O)[C@H](CCCNC(=N)N)NC(=O)[C@H](Cc2c[nH]cn2)NC(=O)[C@H](Cc2c[nH]cn2)NC(=O)COCCOCCNC(=O)CC[C@H](NC(=O)CCCCCCCCCCCCCCCCCCC(=O)O)C(=O)O)C(=O)N[C@@H](CC(N)=O)C(=O)N[C@@H]([C@@H](C)O)C(=O)N[C@@H](C)C(=O)N[C@@H]([C@@H](C)O)C(=O)N1)[C@@H](C)O)C(=O)N[C@@H](CC(C)C)C(=O)N1CCC[C@H]1C(=O)N1CCC[C@H]1C(=O)N[C@H](C(=O)N[C@@H](CC(N)=O)C(=O)N[C@H](C(=O)NCC(=O)N[C@@H](CO)C(=O)N[C@@H](CC(N)=O)C(=O)N[C@H](C(=O)N[C@@H](Cc1ccc(O)cc1)C(N)=O)[C@@H](C)O)C(C)C)[C@@H](C)O
For the molecule B1, the “Potency Luciferase” value is 0.3 nM.

B2: N-alpha-[2-(2-{2-[4-(S)-Carboxy-4-(19-carboxynonadecanoylamino)butyrylamino]ethoxy}ethoxy)acetyl]-His-His-[Arg1,His17]-pramlintide (peptide)
peptide: {C20 diacid-γGlu-AEEA}-HHRCNTATCATQRLANFLHHSSNNFGPILPPTNVGSNTY-NH2
modifications: disulfide 4-9
SMILES: CC[C@H](C)[C@H](NC(=O)[C@@H]1CCCN1C(=O)CNC(=O)[C@H](Cc1ccccc1)NC(=O)[C@H](CC(N)=O)NC(=O)[C@H](CC(N)=O)NC(=O)[C@H](CO)NC(=O)[C@H](CO)NC(=O)[C@H](Cc1c[nH]cn1)NC(=O)[C@H](Cc1c[nH]cn1)NC(=O)[C@H](CC(C)C)NC(=O)[C@H](Cc1ccccc1)NC(=O)[C@H](CC(N)=O)NC(=O)[C@H](C)NC(=O)[C@H](CC(C)C)NC(=O)[C@H](CCCNC(=N)N)NC(=O)[C@H](CCC(N)=O)NC(=O)[C@@H](NC(=O)[C@H](C)NC(=O)[C@@H]1CSSC[C@H](NC(=O)[C@H](CCCNC(=N)N)NC(=O)[C@H](Cc2c[nH]cn2)NC(=O)[C@H](Cc2c[nH]cn2)NC(=O)COCCOCCNC(=O)CC[C@H](NC(=O)CCCCCCCCCCCCCCCCCCC(=O)O)C(=O)O)C(=O)N[C@@H](CC(N)=O)C(=O)N[C@@H]([C@@H](C)O)C(=O)N[C@@H](C)C(=O)N[C@@H]([C@@H](C)O)C(=O)N1)[C@@H](C)O)C(=O)N[C@@H](CC(C)C)C(=O)N1CCC[C@H]1C(=O)N1CCC[C@H]1C(=O)N[C@H](C(=O)N[C@@H](CC(N)=O)C(=O)N[C@H](C(=O)NCC(=O)N[C@@H](CO)C(=O)N[C@@H](CC(N)=O)C(=O)N[C@H](C(=O)N[C@@H](Cc1ccc(O)cc1)C(N)=O)[C@@H](C)O)C(C)C)[C@@H](C)O
With B2, the “Potency Luciferase” value was 0.09 nM.

B3: N-alpha-[(S)-4-Carboxy-4-(17-carboxyheptadecanoylamino)butyryl]-His-His-[His1,His17]-pramlintide (peptide)
peptide: X1-HHHCNTATCATQRLANFLHHSSNNFGPILPPTNVGSNTY-NH2
modifications: disulfide 4-9
SMILES: CC[C@H](C)[C@H](NC(=O)[C@@H]1CCCN1C(=O)CNC(=O)[C@H](Cc1ccccc1)NC(=O)[C@H](CC(N)=O)NC(=O)[C@H](CC(N)=O)NC(=O)[C@H](CO)NC(=O)[C@H](CO)NC(=O)[C@H](Cc1c[nH]cn1)NC(=O)[C@H](Cc1c[nH]cn1)NC(=O)[C@H](CC(C)C)NC(=O)[C@H](Cc1ccccc1)NC(=O)[C@H](CC(N)=O)NC(=O)[C@H](C)NC(=O)[C@H](CC(C)C)NC(=O)[C@H](CCCNC(=N)N)NC(=O)[C@H](CCC(N)=O)NC(=O)[C@@H](NC(=O)[C@H](C)NC(=O)[C@@H]1CSSC[C@H](NC(=O)[C@H](Cc2c[nH]cn2)NC(=O)[C@H](Cc2c[nH]cn2)NC(=O)[C@H](Cc2c[nH]cn2)NC(=O)CC[C@H](NC(=O)CCCCCCCCCCCCCCCCC(=O)O)C(=O)O)C(=O)N[C@@H](CC(N)=O)C(=O)N[C@@H]([C@@H](C)O)C(=O)N[C@@H](C)C(=O)N[C@@H]([C@@H](C)O)C(=O)N1)[C@@H](C)O)C(=O)N[C@@H](CC(C)C)C(=O)N1CCC[C@H]1C(=O)N1CCC[C@H]1C(=O)N[C@H](C(=O)N[C@@H](CC(N)=O)C(=O)N[C@H](C(=O)NCC(=O)N[C@@H](CO)C(=O)N[C@@H](CC(N)=O)C(=O)N[C@H](C(=O)N[C@@H](Cc1ccc(O)cc1)C(N)=O)[C@@H](C)O)C(C)C)[C@@H](C)O
For B3, the “Potency Luciferase” value is 0.05 nM.

In the case of {C18 diacid-γGlu-AEEA-AEEA}-CNTATCATQRLANFLHHSSNNFGPILPPTNVGSNTY-NH2 (disulfide 1-6), the “Potency Luciferase” value is 0.04 nM.

B4: N-alpha-[(S)-4-Carboxy-4-(19-carboxynonadecanoylamino)butyryl]-[Arg1,His17]-pramlintide (peptide)
peptide: {C20 diacid-γGlu}-RCNTATCATQRLANFLHHSSNNFGPILPPTNVGSNTY-NH2
modifications: disulfide 2-7
SMILES: CC[C@H](C)[C@H](NC(=O)[C@@H]1CCCN1C(=O)CNC(=O)[C@H](Cc1ccccc1)NC(=O)[C@H](CC(N)=O)NC(=O)[C@H](CC(N)=O)NC(=O)[C@H](CO)NC(=O)[C@H](CO)NC(=O)[C@H](Cc1c[nH]cn1)NC(=O)[C@H](Cc1c[nH]cn1)NC(=O)[C@H](CC(C)C)NC(=O)[C@H](Cc1ccccc1)NC(=O)[C@H](CC(N)=O)NC(=O)[C@H](C)NC(=O)[C@H](CC(C)C)NC(=O)[C@H](CCCNC(=N)N)NC(=O)[C@H](CCC(N)=O)NC(=O)[C@@H](NC(=O)[C@H](C)NC(=O)[C@@H]1CSSC[C@H](NC(=O)[C@H](CCCNC(=N)N)NC(=O)CC[C@H](NC(=O)CCCCCCCCCCCCCCCCCCC(=O)O)C(=O)O)C(=O)N[C@@H](CC(N)=O)C(=O)N[C@@H]([C@@H](C)O)C(=O)N[C@@H](C)C(=O)N[C@@H]([C@@H](C)O)C(=O)N1)[C@@H](C)O)C(=O)N[C@@H](CC(C)C)C(=O)N1CCC[C@H]1C(=O)N1CCC[C@H]1C(=O)N[C@H](C(=O)N[C@@H](CC(N)=O)C(=O)N[C@H](C(=O)NCC(=O)N[C@@H](CO)C(=O)N[C@@H](CC(N)=O)C(=O)N[C@H](C(=O)N[C@@H](Cc1ccc(O)cc1)C(N)=O)[C@@H](C)O)C(C)C)[C@@H](C)O
Regarding B4, the “Potency Luciferase” value stood at 0.3 nM.

B5: N-alpha-[2-(2-{2-[2-(2-{2-[(S)-4-Carboxy-4-(19-carboxyheptadecanoylamino)butyrylamino]ethoxy}ethoxy)acetylamino]ethoxy}ethoxy)acetyl]-[His17]-pramlintide (2-37) (peptide)
peptide: CNTATCATQRLANFLHHSSNNFGPILPPTNVGSNTY-NH2
modifications: disulfide 1-6; not fully specified (N-terminus); printed as N-alpha-[2-(2-{2-[2-(2-{2-[(S)-4-Carboxy-4-(19-carboxyheptadecanoylamino)butyrylamino]ethoxy}ethoxy)acetylamino]ethoxy}ethoxy)acetyl]-[His17]-pramlintide (2-37)
For the molecule B5, the “Potency Luciferase” value was found to be 0.07 nM.

B6: N-alpha-[2-(2-{2-[4-(S)-Carboxy-4-(19-carboxynonadecanoylamino)butyrylamino]ethoxy}ethoxy)acetyl]-His-His-[Arg1His17,Gln21]-pramlintide (peptide)
peptide: {C20 diacid-γGlu-AEEA}-HHRCNTATCATQRLANFLHHSSQNFGPILPPTNVGSNTY-NH2
modifications: disulfide 4-9
SMILES: CC[C@H](C)[C@H](NC(=O)[C@@H]1CCCN1C(=O)CNC(=O)[C@H](Cc1ccccc1)NC(=O)[C@H](CC(N)=O)NC(=O)[C@H](CCC(N)=O)NC(=O)[C@H](CO)NC(=O)[C@H](CO)NC(=O)[C@H](Cc1c[nH]cn1)NC(=O)[C@H](Cc1c[nH]cn1)NC(=O)[C@H](CC(C)C)NC(=O)[C@H](Cc1ccccc1)NC(=O)[C@H](CC(N)=O)NC(=O)[C@H](C)NC(=O)[C@H](CC(C)C)NC(=O)[C@H](CCCNC(=N)N)NC(=O)[C@H](CCC(N)=O)NC(=O)[C@@H](NC(=O)[C@H](C)NC(=O)[C@@H]1CSSC[C@H](NC(=O)[C@H](CCCNC(=N)N)NC(=O)[C@H](Cc2c[nH]cn2)NC(=O)[C@H](Cc2c[nH]cn2)NC(=O)COCCOCCNC(=O)CC[C@H](NC(=O)CCCCCCCCCCCCCCCCCCC(=O)O)C(=O)O)C(=O)N[C@@H](CC(N)=O)C(=O)N[C@@H]([C@@H](C)O)C(=O)N[C@@H](C)C(=O)N[C@@H]([C@@H](C)O)C(=O)N1)[C@@H](C)O)C(=O)N[C@@H](CC(C)C)C(=O)N1CCC[C@H]1C(=O)N1CCC[C@H]1C(=O)N[C@H](C(=O)N[C@@H](CC(N)=O)C(=O)N[C@H](C(=O)NCC(=O)N[C@@H](CO)C(=O)N[C@@H](CC(N)=O)C(=O)N[C@H](C(=O)N[C@@H](Cc1ccc(O)cc1)C(N)=O)[C@@H](C)O)C(C)C)[C@@H](C)O
For B6, the “Potency Luciferase” value was found to be 0.06 nM.

Turning to {5‑carboxypentanoyl-γGlu}-HHHCNTATCATQRLANFLHHSSNNFGPILPPTNVGSNTY-NH2 (disulfide 4-9) [N-alpha-[(S)-4-Carboxy-4-(5-carboxypentanoylamino)butyryl]-His-His-[His1,His17]-pramlintide], the “Potency Luciferase” value was found to be 0.04 nM.
